# “And” between values parts separate entries of the source, which are not always exact repeats. Identical values can stand only once.
# Test system: Bacillus subtilis DB104 (SP-AmyQ fusion secretion)
# Assay: AmyQ secretion efficiency, weighted average sort bin (1 = best secretion, 10 = worst) (bin number (weighted average, 1-10)); higher = lower secretion efficiency
# How it was run: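 B. subtilis DB104 library expressing mature AmyQ fused to designed signal peptides (amyE-integrated) was encapsulated at about 0.3 cells per ~65 nL alginate bead with fluorescein-starch, grown about 13 h at room temperature and nile red stained. Occupied beads were sorted by large-particle flow cytometry into 10 equally populated bins by green/red fluorescence ratio, and each bin's amplicons were Illumina-sequenced. Secretion score is the read-frequency-weighted average bin number, normalised to beads per bin, excluding low-abundance sequences.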
sequence,measurement,value
MNKKYSSKQGCRIFTSALFPTFSSVTAAQG,AmyQ secretion efficiency,4.96
MKRKLLSSLAISALSLGLLVSAPTASFGAES,AmyQ secretion efficiency,3.96
MKKAKRKRLSVVLVTTVFLVKQQESVAQAKQL,AmyQ secretion efficiency,5.44
MLCVMMLLFSAIAEDEVSAQAKDQ,AmyQ secretion efficiency,6.57
MTTTIAWFLPLVCVLLISGWLAPAASASAQTT,AmyQ secretion efficiency,2.38
MIKLVLCVSILAVILSGVALTQLS,AmyQ secretion efficiency,7.36
MKWMCSTCCAAVLLAGGAAQAEAV,AmyQ secretion efficiency,2.63
MRKLKRVLLLLVTGLFMSLFAVTATASAQTG,AmyQ secretion efficiency,1.02
MKKAFILSAAAAVGLFTFGGVQQVSAKEL,AmyQ secretion efficiency,3.11
MKRIRIPMTLALGAALTISFASAEEN,AmyQ secretion efficiency,6.71
MTGYYKVLTMCFLGLILFVPTALADNS,AmyQ secretion efficiency,1.69
MFNRLFRVCFLAALIMAFTLPNSVYEQKP,AmyQ secretion efficiency,7.29
MKRLLVSLRVWMVFLMNWVTPDRKTAAAAVD,AmyQ secretion efficiency,7.62
MRKLWISLLFALTLIFTMAFSNMSAQAAGK,AmyQ secretion efficiency,2.67
MKKAFLVFLSVVLVTTVFLSKQQESVAQAKQL,AmyQ secretion efficiency,1.98
MMTIWIGMLAAAVLLLMVPKVSLADAA,AmyQ secretion efficiency,5.79
MRKKTKNRLISSVLSTVVISSLLFPGAAGASSK,AmyQ secretion efficiency,1.59 and 2.27 and 1.9
MTKLKMLSMLTVMIASLFIFSKRRALAVQY,AmyQ secretion efficiency,6.11
MTMLRKNMSIIGWILLLCIIPLFAFTVIASGKEV,AmyQ secretion efficiency,5.45
MKKRLIAPMSGYGASLAFFAMSGSAQAAAY,AmyQ secretion efficiency,7.43
MKKRLIAPMLLIAAILAFFAMSGSAQAAAY,AmyQ secretion efficiency,2.47
MMTAIIIAIIAAVIVIAALITFNVRNASPG,AmyQ secretion efficiency,6.42
MLCVMMLLFSAIASFPVSEQAKDQ,AmyQ secretion efficiency,4.62
MKRFSTAYLLLGILCSAAVFLIGAPSRALGDED,AmyQ secretion efficiency,6.23
MKLAKRVSALTPSTTLAITAKDKEL,AmyQ secretion efficiency,6.63
MLCVMMLLFSAIASFPVSPQAKDQ,AmyQ secretion efficiency,6.39
MKKRLIAPMLLSAASLAFFAMSGSIQAAAY,AmyQ secretion efficiency,6.12
MRKTSLLLAGLCTAAQMVFVTHASAEES,AmyQ secretion efficiency,2.32
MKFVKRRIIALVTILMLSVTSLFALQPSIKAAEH,AmyQ secretion efficiency,3.57
MLFIFVITCVMAASLTLGSLLPAGYATAKED,AmyQ secretion efficiency,4.43
MTKKAWFLPLVCVLLISGWLAPAASASLQTT,AmyQ secretion efficiency,3.41
MLKKIALTLCPAIVGSLLFFTAPTSAHVS,AmyQ secretion efficiency,3.63
MRKNRRGKQGTLSLGLLSFMVTPVSAASK,AmyQ secretion efficiency,7.32
MNITIMSFVAVAALSTTAFGAHASAKEI,AmyQ secretion efficiency,3.64
MKKVLMAFIICLSLILSVLAAPPSGSAVSAKAESV,AmyQ secretion efficiency,2.05
MKLSVKIAGVLTVAAAAMTAKMYFFPAATAKGN,AmyQ secretion efficiency,6.16
MKKWMAGLFLAAAVLLCLLVTSLMVPQQIQGASS,AmyQ secretion efficiency,4.31
MKKWIYVRKKRSIAGIGGFSVHAASS,AmyQ secretion efficiency,7.24
MKKVLMAFIICLSLILSTISSVLAAPPSGAKAESV,AmyQ secretion efficiency,2.8
MKRMIVRMTLPLLIVCLAFSDFSASARAASE,AmyQ secretion efficiency,2.61
MKKRFSLIMMTGLLFGLTSPTFAAEK,AmyQ secretion efficiency,3.56
MMKKGRSRQQLTATVLFGTCAVDVPGIISPKTAEAASQ,AmyQ secretion efficiency,7.68
MLCVMMLLFSAIAPDPSGAQAKDQ,AmyQ secretion efficiency,4.72
MTKKAKKKKLVCVLLISGWLAPAASASAQTT,AmyQ secretion efficiency,2.39
MRFTKVVGFLSVLGLAATTTFIVFPLTAQAEKA,AmyQ secretion efficiency,1.5
MLKKIALTLCPAIVAPASAHVS,AmyQ secretion efficiency,6.21
MGLGKKLSVAVAASFMSLSISLPGGQAAEG,AmyQ secretion efficiency,1.55
MRPVFPLILSAVLFLSCFKKKRRTRASASKR,AmyQ secretion efficiency,6.66
MLGMGWMVGLLAGCLAAGGFSYNAFATEN,AmyQ secretion efficiency,6.54
MKRMCSICCAAVLLAGGAAQAEAV,AmyQ secretion efficiency,3.05
MKKAFILSAAAAVGLFTFEEDEDEASAKEL,AmyQ secretion efficiency,4.76
MKKQKKIAGVLTVAAAAMTAKMYATAKGN,AmyQ secretion efficiency,7.17
MLRITINIITMFIAAAVISLTGTAEAAEK,AmyQ secretion efficiency,3.59
MKRLLLGILCSAAVFLIGAPSRALGAEV,AmyQ secretion efficiency,2.5
MKVCQKSIVRFRKRRIIGTFVISVPFMANAQSD,AmyQ secretion efficiency,7.62
MRKTIFAFLTGLMMFIFTSSGTITAASASPD,AmyQ secretion efficiency,1.89
MKWMCMICCAAVLLAMIGAAQAEAV,AmyQ secretion efficiency,3.44
MPYLKRVLLLLVTGLFMSLFAVTATASQQTG,AmyQ secretion efficiency,1.51
MKQIKKKRTSFMLLAMTGQTALAKDV,AmyQ secretion efficiency,6.55
MTKLKMLSMLTVMIASLFIFSSQALVVQY,AmyQ secretion efficiency,5.36
MKRLFMKLLTTTASLVLFAVVFVFAVKGAPAKAETH,AmyQ secretion efficiency,2.87
MLKKIALTLCPAIVGSLLFFTAPASTHVS,AmyQ secretion efficiency,5.85
MKSKWMSGLLLVAVGFSFTQVMVHCGET,AmyQ secretion efficiency,4.81
MKKKLAAGLTASAIVGTTLVVTPAELATI,AmyQ secretion efficiency,5.54
MKKRLIGFLVLVPALIEDEEELIEANKK,AmyQ secretion efficiency,7.82
MKKRLIAPMLLSAASLAFFAMSGSAQIAAY,AmyQ secretion efficiency,8.39
MKKLLAAGIIGLLTVSIASPSFYAEK,AmyQ secretion efficiency,7.71
MKKRINLIGFLVLVPALIMSGITLIEANKK,AmyQ secretion efficiency,7.4
MKKKLAAGLTASAIVGTTLVVTPKEAATI,AmyQ secretion efficiency,4.56
MRKKIKVLTMCFLGLILFVPTALADNS,AmyQ secretion efficiency,1.88
MKIRKIKKSSALSFGMLISAVPALAAGT,AmyQ secretion efficiency,4.2
MKRRTRYKKQVVGILLSLAFVLFVFSFSERHE,AmyQ secretion efficiency,6.68
MKKWLIIAVSLAIAIVLFMYTAGEAKAAGM,AmyQ secretion efficiency,2.74
MRPVFPLILSAVLFLFGARQTEASASKR,AmyQ secretion efficiency,5.49
MKKLLAAGIIGLLTVSIASPAFAAEK,AmyQ secretion efficiency,2.44
MKKAAAVLLSLGLVFGFSYGAGHVAEAAKK,AmyQ secretion efficiency,5.64
MKKQIITATTAVVLGSTGAASAQSI,AmyQ secretion efficiency,4.95
MRKKHKTISLLIIFLLASAVLAKPIEAHTV,AmyQ secretion efficiency,2.55
MRMLWRSLALCGLALTLAPCTGTAQAAEP,AmyQ secretion efficiency,1.82
MRNLTKTSLLLAGLCTAAKKKFVTHASAEES,AmyQ secretion efficiency,8.31
MLKKKWMVGLLAGCLAAGGFSYNHFATEN,AmyQ secretion efficiency,6.62
MKRTWNVCLTALLSVLLVAGSVDDHAEAKKP,AmyQ secretion efficiency,1.97
MKKRLIAPMLLSAASLAFFAMSGSAQMAAY,AmyQ secretion efficiency,6.46
MKRTWNVCLTALLSVLLVAGSVPFHVEAKKP,AmyQ secretion efficiency,2
MMRTWNVCLTALLSVLLVAGSVPFHAEAKKP,AmyQ secretion efficiency,3.23
MKLKSKLLLSCLALSTVFVATTIANAKRR,AmyQ secretion efficiency,7.22
MKKKIIRFLLVSFVLFFALSTGITGVQAAPA,AmyQ secretion efficiency,2.57
MKKWMATGSLAAAVLLCLMVPQQIQGASS,AmyQ secretion efficiency,2.83
MFNRLFRVCFLAALIMAFTLPNSVYNQKP,AmyQ secretion efficiency,6.82
MKKVLMAFIICLSLILSVLAAPPSGAKAARR,AmyQ secretion efficiency,2.06
MTSGTFIIWTIILGALLVCCIAVAYTLTKSQAGASSS,AmyQ secretion efficiency,4.88
MYKKFVPTYTKYFLFFVSFEMMENPHALDY,AmyQ secretion efficiency,6.52
MKKMNFSSNSIIVMLATALFLGLTPAGANAADL,AmyQ secretion efficiency,4.32
MSSSVKIAGVLTVAAAAMTAKMYATAKGN,AmyQ secretion efficiency,4.6
MKKTIMSFVAVAALSTTAFGAHASAAKR,AmyQ secretion efficiency,2.03
MSKWLIIAVSLAIAIVLFMYTKGEAKAAGM,AmyQ secretion efficiency,7.49
MNKFLKSNFRFLLAAALGISLLASSNFIKASND,AmyQ secretion efficiency,4.18 and 4.22 and 2.8
MKKIMSARKRRRKLTIFCFSPQASAAYD,AmyQ secretion efficiency,6.63
MKRKRSIMACLILFSFTITTFINTETISAFSN,AmyQ secretion efficiency,3.86
MKSKWMSGLLLVAVGFSFIALFATQVMVHAGET,AmyQ secretion efficiency,7.59
MPIKKKVMMCLAVTLVFGSMSFPTLTNSGFFKE,AmyQ secretion efficiency,4.32
MKKKKMLSMLTVMIASLFIFSSQALAVQY,AmyQ secretion efficiency,3.15
MKTKTLFIFSAILTLSIFAPNETFAQTK,AmyQ secretion efficiency,1.96
MRKYTVIASILLSFLSVLSGGHHESKARRR,AmyQ secretion efficiency,7.19
MFFKKTVVSALSISALALSVSGVASAHEI,AmyQ secretion efficiency,3
MTMLRKIIGWILLLCIIPLFAFTVIASYKEV,AmyQ secretion efficiency,6.87
MRSYIKVLTMCFLGLILFVPTALNDNS,AmyQ secretion efficiency,6.3
MKKKKAGLFLAAAVLLCLMVPQQIQGASS,AmyQ secretion efficiency,4.01
MMKKLFHSTLIVLLFFSFFGVQPGHAKKQ,AmyQ secretion efficiency,2.96
MKKRITYSLLALLAVVAFAFTDSSKAKAASA,AmyQ secretion efficiency,2.18
MKNMSCKLVVSVTLFFSFLTIGPLLHAQNS,AmyQ secretion efficiency,1.77
MKQKRKIIGWILLLCIIPLFAFTVIASGKEV,AmyQ secretion efficiency,6.81
MKSKGSIMACLILFSFTITTFINTETISQFSN,AmyQ secretion efficiency,7.33
MKKIWIGMLAAAVLLLRKRKKKSLADAA,AmyQ secretion efficiency,6.58
MHLIRAAGAVCLAVVLIAGCRFNEDQHQLEGENT,AmyQ secretion efficiency,6.09
MNKKYFVLIVCIIFTSALFPTRRRVTAAQG,AmyQ secretion efficiency,3.61
MGSGTIWTIILGALLVCCIAVAYTLTKSQAGASSS,AmyQ secretion efficiency,7.61
MKQTMIFLTSFMLLAMTGQTALAKDV,AmyQ secretion efficiency,3.23
MKQGKFSSFLILLLMLTLVVAPKEKAEAASS,AmyQ secretion efficiency,2.33
MKKTIMSTYGVAALSTTAFGAHASAKEI,AmyQ secretion efficiency,8.21
MKRLLSTLLIGITFAPSAFAKQD,AmyQ secretion efficiency,2.73
MNLRKIRKKRALSLGMLVSAAPVLATSS,AmyQ secretion efficiency,7.46
MRKTIFAFLTGLMMFKRRKKKASASPD,AmyQ secretion efficiency,7.76
MRNLTKTSLLLAGLCTAAQMVFVTHASAKKK,AmyQ secretion efficiency,3.84
MNKPTKLFSTLALAAGMTAAAAGGAGTIHAQRR,AmyQ secretion efficiency,6.62
MNLRKTYGSSALSLGMLVSAAPVLATSS,AmyQ secretion efficiency,6.93
MRSKKLWISLLFALTLIFTMAFSNMSCQAAGK,AmyQ secretion efficiency,2.77
